Reference: paper PMC4220304

Molecular target: L363 antibody (anti-CD1d-α-GalCer)
Experiment: SPR

Row | Substance | Kd [nM] | kon [M⁻¹ s⁻¹] | koff [s⁻¹]
1 | CD1d loaded with α-GluCer (from UniProt P11609 22-297; P01887 21-119) (complex) | 5020 | 93700 | 0.471
2 | CD1d loaded with α-lyso-galactosylceramide (α-psychosine) (from UniProt P11609 22-297; P01887 21-119) (complex) | 2230 | 943000 | 
3 | CD1d loaded with α-lyso-glucosylceramide (α-glucopsychosine) (from UniProt P11609 22-297; P01887 21-119) (complex) | 8140 | 4590 | 0.115

These reach a lower Kd. Values come first.

Row | Kd [nM] | kon [M⁻¹ s⁻¹] | koff [s⁻¹] | Substance
4 | 350 | 142000 |  | CD1d loaded with C24:1 α-GalCer (from UniProt P11609 22-297; P01887 21-119) (complex)
5 | 96.7 | 85700 |  | CD1d loaded with α-GalCer (from UniProt P11609 22-297; P01887 21-119) (complex)
